Test results from US20110045489A1, “Polymerases for Incorporating Modified Nucleotides” (NEW ENGLAND BIOLABS, INC., priority 2008, published 2011).
Residue numbers refer to the chain shown, from its start. Numbers in names are those of the source.

B1: Mma D153A/E155A/L417S/P419V: Methanococcus maripaludis DNA polymerase mutant (protein)
chain: MESLIDLDYNSDDLCIYLYLINSIIKEKDFKPYFYVNSTDKEQILEFLKDYEKKHKLDSEISKMIENIETVKKIVFDENYQEKELSKVTVKYPNNVKTVREILMEFERLYEYDIPFVRRYLIDNSVIPTSTWDFENNKKIDNKIPDFKTVSFAIAVYCNKEPNPKKDPIIMASFSSKDFNTVVSTKKFDHEKLEYVKDEKELIKRIIEILKEYDIIYTYNGDNFDFPYLKKRAESFGLELKLGKNDEKIKITKGGMNSKSYIPGRVHIDLYPIARRLLNLTKYRLENVTEALFDVKKVDVGHENIPKMWDNLDETLVEYSHQDAYYTQRIGEQFLPLEIMFSRVVNQSLYDINRMSSSQMVEYLLLKNSYKMGVIAPNRPSGKEYQKRIRSSYEGGYVKEPLKGIHEDIVSMDFLSSYVSIIMSHNLSPETIDCTCCSDEENGENEEILGHKFCKKSIGIIPKTLMDLINRRKKVKKVLREKAEKGEFDEEYQILDYEQRSIKVLANSHYGYLAFPMARWYSRDCAEITTHLGRQYIQKTIEEAENFGFKVIYADTDGFYSKWADDKEKLSKYELLEKTREFLKNINNTLPGEMELEFEGYFKRGIFVTKKKYALIDENEKITVKGLEVVRRDWSNVSKNTQKNVLNALLKEGSVENAKKVIQDTIKELKDGKVNNEDLLIHTQLTKRIEDYKTTAPHVEVAKKILKSGNRVNTGDVISYIITSGNKSISERAEILENAKNYDTNYYIENQILPPVIRLMEALGITKDELKDSKKQYTLHHFLK
B2: 9° N D141A/E143A/R406E/L408G: 9° N DNA polymerase mutant (protein, UniProt Q56366 1-775, looked up, variant D141A E143A R406E L408G)
DNA polymerase: MILDTDYITENGKPVIRVFKKENGEFKIEYDRTFEPYFYALLKDDSAIEDVKKVTAKRHGTVVKVKRAEKVQKKFLGRPIEVWKLYFNHPQDVPAIRDRIRAHPAVVDIYEYDIPFAKRYLIDKGLIPMEGDEELTMLAFAIATLYHEGEEFGTGPILMISYADGSEARVITWKKIDLPYVDVVSTEKEMIKRFLRVVREKDPDVLITYNGDNFDFAYLKKRCEELGIKFTLGRDGSEPKIQRMGDRFAVEVKGRIHFDLYPVIRRTINLPTYTLEAVYEAVFGKPKEKVYAEEIAQAWESGEGLERVARYSMEDAKVTYELGREFFPMEAQLSRLIGQSLWDVSRSSTGNLVEWFLLRKAYKRNELAPNKPDERELARRRGGYAGGYVKEPERGLWDNIVYLDFESGYPSIIITHNVSPDTLNREGCKEYDVAPEVGHKFCKDFPGFIPSLLGDLLEERQKIKRKMKATVDPLEKKLLDYRQRAIKILANSFYGYYGYAKARWYCKECAESVTAWGREYIEMVIRELEEKFGFKVLYADTDGLHATIPGADAETVKKKAKEFLKYINPKLPGLLELEYEGFYVRGFFVTKKKYAVIDEEGKITTRGLEIVRRDWSEIAKETQARVLEAILKHGDVEEAVRIVKEVTEKLSKYEVPPEKLVIHEQITRDLRDYKATGPHVAVAKRLAARGVKIRPGTVISYIVLKGSGRIGDRAIPADEFDPTKHRYDAEYYIENQVLPAVERILKAFGYRKEDLRYQKTKQVGLGAWLKVKGKK
B3: 9° N D141A/E143A/Y409A/R406V: 9° N DNA polymerase mutant (protein, UniProt Q56366 1-775, looked up, variant D141A E143A Y409A R406V)
DNA polymerase: B2 DNA polymerase with E406V, G408L, Y409A
B4: 9° N exo-P410V: 9° N DNA polymerase mutant (protein, UniProt Q56366 1-775, looked up, variant D141A E143A P410V)
DNA polymerase: B2 DNA polymerase with E406R, G408L, P410V
B5: 9° N D141A/E143A/Y409A/R406P/L408C: 9° N DNA polymerase mutant (protein, UniProt Q56366 1-775, looked up, variant D141A E143A Y409A R406P L408C)
DNA polymerase: B2 DNA polymerase with E406P, G408C, Y409A
B6: 9° N D141A/E143A/Y409A/P410R/S411T: 9° N DNA polymerase mutant (protein, UniProt Q56366 1-775, looked up, variant D141A E143A Y409A P410R S411T)
DNA polymerase: B2 DNA polymerase with E406R, G408L, Y409A, P410R, S411T
B7: 9° N D141A/E143A/Y409A/R406S/L408I: 9° N DNA polymerase mutant (protein, UniProt Q56366 1-775, looked up, variant D141A E143A Y409A R406S L408I)
DNA polymerase: B2 DNA polymerase with E406S, G408I, Y409A
B8: 9° N D141A/E143A/Y409A/R406T/L408K: 9° N DNA polymerase mutant (protein, UniProt Q56366 1-775, looked up, variant D141A E143A Y409A R406T L408K)
DNA polymerase: B2 DNA polymerase with E406T, G408K, Y409A
B9: 9° N D141A/E143A/Y409A/S411T: 9° N DNA polymerase mutant (protein, UniProt Q56366 1-775, looked up, variant D141A E143A Y409A S411T)
DNA polymerase: B2 DNA polymerase with E406R, G408L, Y409A, S411T
B10: 9° N D141A/E143A/Y409A/R406V/A485L: 9° N DNA polymerase mutant (protein, UniProt Q56366 1-775, looked up, variant D141A E143A Y409A R406V A485L)
DNA polymerase: B2 DNA polymerase with E406V, G408L, Y409A, A485L
B11: 9° N D141A/E143A/Y409A/R406S/L408K: 9° N DNA polymerase mutant (protein, UniProt Q56366 1-775, looked up, variant D141A E143A Y409A R406S L408K)
DNA polymerase: B2 DNA polymerase with E406S, G408K, Y409A
B12: 9° N D141A/E143A/R406P/L408G: 9° N DNA polymerase mutant (protein, UniProt Q56366 1-775, looked up, variant D141A E143A R406P L408G)
DNA polymerase: B2 DNA polymerase with E406P
B13: 9° N D141A/E143A/Y409A/R406T/L408R: 9° N DNA polymerase mutant (protein, UniProt Q56366 1-775, looked up, variant D141A E143A Y409A R406T L408R)
DNA polymerase: B2 DNA polymerase with E406T, G408R, Y409A
B14: 9° N D141A/E143A/Y409A/R406S/L408R: 9° N DNA polymerase mutant (protein, UniProt Q56366 1-775, looked up, variant D141A E143A Y409A R406S L408R)
DNA polymerase: B2 DNA polymerase with E406S, G408R, Y409A
B15: 9° N D141A/E143A/L408S/Y409A/P410V/S411T: 9° N DNA polymerase mutant (protein, UniProt Q56366 1-775, looked up, variant D141A E143A L408S Y409A P410V S411T)
DNA polymerase: B2 DNA polymerase with E406R, G408S, Y409A, P410V, S411T
B16: 9° N D141A/E143A/Y409A/R406H/L408G: 9° N DNA polymerase mutant (protein, UniProt Q56366 1-775, looked up, variant D141A E143A Y409A R406H L408G)
DNA polymerase: B2 DNA polymerase with E406H, Y409A
B17: 9° N D141A/E143A/Y409A/R406Y/L408G: 9° N DNA polymerase mutant (protein, UniProt Q56366 1-775, looked up, variant D141A E143A Y409A R406Y L408G)
DNA polymerase: B2 DNA polymerase with E406Y, Y409A
B18: 9° N D141A/E143A/Y409A/R406L/L408G: 9° N DNA polymerase mutant (protein, UniProt Q56366 1-775, looked up, variant D141A E143A Y409A R406L L408G)
DNA polymerase: B2 DNA polymerase with E406L, Y409A
B19: 9° N D141A/E143A/Y409A/R406V/L408Y: 9° N DNA polymerase mutant (protein, UniProt Q56366 1-775, looked up, variant D141A E143A Y409A R406V L408Y)
DNA polymerase: B2 DNA polymerase with E406V, G408Y, Y409A

test system: modified nucleotide; experiment: Screen of DNA polymerase mutants for modified nucleotide incorporation; type: biochemical
Excerpt: In order to determine the extent of 3′-modified nucleotide incorporation by archaeon DNA polymerases, the titration assay described by Gardner and Jack (2002) was used. In this assay, the efficiency of incorporation of chain terminators was judged by the size of the reaction products in a polymerization reaction. As the efficiency of chain-terminator incorporation increased, the average reaction product size decreased because polymerization was more often halted by terminator addition. By comparing the amount of terminator required to give the same spectrum of reaction products, the relative efficiency of incorporation of the test compounds with the different polymerases was determined.
A complex library of 9° N DNA polymerase mutants was screened for enhanced incorporation of 3′-azido-ddCTP. Several classes of 9° N DNA polymerase mutants were identified with enhanced terminator incorporation. 9° N exo-L408S/Y409A/P410V (Therminator III™, NEB, Inc., Ipswich, Mass.) was purified and characterized in more detail. 9° N DNA polymerase single mutants P410V, L408S, and Y409A and double mutants L408S/P410V, L408S/Y409A, and Y409A/P410V were also purified for comparison. Purification and characterization of DNA polymerase mutants was as described in Gardner and Jack, Nucleic Acids Res. 27:2545-2553 (1999).
A library of 9° N DNA polymerase mutants was constructed by PCR amplification of the polymerase genes using gene-specific primers or codon optimization and gene synthesis Czar et al. Trends Biotechnol 27(2): 63-72 (2009)). The ability to incorporate 3′-modified nucleotide terminators was evaluated by the titration assay for chain terminator incorporation efficiency as described by Gardner and Jack (2002).
Furthermore, the same assay was used to measure 3′-amino-ddCTP incorporation by 9° N exo-L408S/Y409A/P410V (FIG. 3) and to measure rates of incorporation (FIG. 4). Examples of mutants that increased modified nucleotide incorporation by at least two-fold were: […]

Increase of modified nucleotide incorporation, at least two-fold:
B1
B2
B3
B4
B5
B6
B7
B8
B9
B10
B11
B12
B13
B14
B15
B16
B17
B18
B19
